Experimental data: publication PMC2748697

Molecular target: tubulin (bovine, Cytoskeleton) (bovine) (UniProt Q6B856)

GST-tagged full-length Capzb2 (1–271) (from UniProt P47757-2 1-272) (natural protein)
reduction of the extent of tubulin polymerization at 0.5, 1 and 10 µM Capzb2 (8%, 16%, 35%; none at 0.1 µM): 35%
